Measurements published in article doi:10.1101/701250.

Target: APC-TMR (Mus musculus) (UniProt Q61315)
Assay: TIRF microscopy in vitro motility assay

Substance: APC-TMR, Q61315 1-2845
- stoichiometry N: 2
